These results are taken from patent US9670515B2, “Methods for production of xylosylxylitol oligomers” (The Regents of the University of California, priority 2014, dated 2017).

Entries after “also recorded” stand apart in the source; their conditions may differ.

One series has as its system CDT-2. As to the kind of experiment: Yeast cell-based xylodextrin uptake assay. Also noted: species or system Neurospora crassa. To be noted: starting concentration 100 μM, 30 minutes. The method, then:
(§1) S. cerevisiae was grown in an optimized minimum medium (oMM) lacking uracil into late log phase. The oMM contained 1.7 g/L YNB (Sigma, Y1251), 2-fold appropriate CSM dropout mixture, 10 g/L (NH4)2SO4, 1 g/L MgSO4.7H2O, 6 g/L KH2PO4, 100 mg/L adenine hemisulfate, 10 mg/L inositol, 100 mg/L glutamic acid, 20 mg/L lysine, 375 mg/L serine and 100 mM 4-morpholineethanesulfonic acid (MES), pH 6.0 (Lin et al., submitted). Cells were then harvested and washed three times with assay buffer (5 mM MES, 100 mM NaCl, pH 6.0) and resuspended to a final OD600 of 40. Substrate stocks were prepared in the same assay buffer at a concentration of 200 μM. Transport assays were initiated by mixing equal volumes of the cell suspension and the substrate stock. Reactions were incubated at 30° C. with continuous shaking for 30 minutes. Samples were centrifuged at 14,000 rpm at 4° C. for 5 minutes to remove yeast cells. 400 μL of each sample supernatant was transferred to an HPLC vial containing 100 μL of 0.5 M NaOH, and the concentration of the remaining substrate was measured by HPAEC as described below.
as §1, with “(Lin et al. 2014). Cells were” for “(Lin et al., submitted). Cells were”, “30 minutes. […] 400 μL” for “30 minutes. Samples were centrifuged at 14,000 rpm at 4° C. for 5 minutes to remove yeast cells. 400 μL”, “100 μL 0.5 M” for “100 μL of 0.5 M”

A short description of series [1]: Activity of bacterial GH43-7 enzymes on xylobiose or xylosyl-xylitol. It is filed as biochemical. Conditions: purified enzyme; for β-xylosidase activity: xylobiose (X2) substrate; for xylosyl-xylitol hydrolase activity: xylosyl-xylitol (xlt2) substrate. The method, then: Experiments were also conducted to further explore potential xylosyl-xylitol hydrolase activity of other β-xylosidases. […] To see if these proteins actually have xylosyl-xylitol hydrolase activity, purified B. subtilis GH43-7 and purified E. coli GH43-7 were incubated with xylobiose (X2) or xylosyl-xylitol (xlt2) and their activity on these substrates was analyzed. […] In summary, two GH43 enzymes from bacteria Bacillus subtilis (AAB41091.1) and Escherichia coli (WP_000406872.1) were tested and confirmed to both cleave xylosyl-xylitol.
S. cerevisiae strains transformed with pRS423_GH43-2, pRS423_GH43-7, or pRS313_NcXR were grown in oMM lacking histidine with 2% glucose until late log phase before harvesting by centrifugation. E. coli strains BL21DE3 transformed with pET302_BsGH43-7 or pET302_EcGH43-7 were grown in TB medium, induced with 0.2 mM IPTG at OD600 of 0.8, and harvested by centrifugation 12 hours after induction. Yeast or E. coli cell pellets were resuspended in a buffer containing 50 mM Tris-HCl, 100 mM NaCl, 0.5 mM DTT, pH 7.4 and protease inhibitor cocktail (Pierce). Cells were lysed with an Avestin homogenizer, and the clarified supernatant was loaded onto a HisTrap column (GE Healthcare). His-tagged enzymes were purified with an imidazole gradient, buffer-exchanged into 20 mM Tris-HCl, 100 mM NaCl, pH 7.4, and concentrated to 5 mg/mL.

Series [2] in a line: β-xylosidase assay of GH43-2 and GH43-7 with xylosyl-xylitol and xylobiose. In kind it is biochemical, Neurospora crassa. Conditions: purified enzyme. The procedure:
For the β-xylosidase assay of GH43-2 with xylodextrins, 0.5 μM of purified enzyme was incubated with 0.1% in-house prepared xylodextrin or 1 mM xylobiose (Megazyme) in 1×PBS at 30° C. Reactions were sampled at 30 min and quenched by adding 5 volumes of 0.1 mM NaOH. The products were analyzed by HPAEC as described below. For pH profiling, acetate buffer at pH 4.0, 4.5, 5.0, 5.5, 6.0, and phosphate buffer at 6.5, 7.0, 7.5, 8 were added at a concentration of 0.1 M. For the β-xylosidase assay of GH43-2 and GH43-7 with xylosyl-xylitol, 10 μM of purified enzyme was incubated with 4.5 mM xylosyl-xylitol and 0.5 mM xylobiose in 20 mM MES buffer, pH=7.0, and 1 mM CaCl2 at 30° C. Reactions were sampled at 3 hours and quenched by heating at 99° C. for 10 min. The products were analyzed by ion-exclusion HPLC as described below.
For the β-xylosidase assay of GH43-2 with xylodextrins, 0.5 μM of purified enzyme was incubated with 0.1% in-house prepared xylodextrin or 1 mM xylobiose (Megazyme) in 1×PBS at 30° C. Reactions were sampled at 30 min and quenched by adding 5 volumes of 0.1 M NaOH. The products were analyzed by HPAEC as described below. […] The products were analyzed by ion-exclusion HPLC as described below.

Series [3] is described as follows: Xylose reductase assay of NcXR with xylodextrin. It is filed as biochemical, Neurospora crassa. To be noted: in vitro, xylodextrins with degrees of polymerization 2 to 4; products up to xlt3. The method, then: For the xylose reductase assays of S. stipitis XR and N. crassa XR, 1 μM of purified enzyme was incubated with 0.06% xylodextrin and 2 mM NADPH in 1×PBS at 30° C. Reactions were sampled at 30 min and quenched by heating at 99° C. for 10 min. The products were analyzed by LC-QToF as described below.
For the xylose reductase assays of NcXR, 1 μM of purified enzyme was incubated with 0.06% xylodextrin and 2 mM NADPH in 1×PBS at 30° C. Reactions were sampled at 30 min and quenched by heating at 99° C. for 10 min. The products were analyzed by LC-QToF as described below.

In the case of `OC1OC[C@@H](O[C@@H]2OC[C@@H](O)[C@H](O)[C@H]2O)[C@H](O)[C@H]1O` (stereo partly shown) [xylobiose], in the series on CDT-2, the “import into S. cerevisiae strains expressing cdt-2” value is recorded as “able to import”.
As to `OC1OC[C@@H](O[C@@H]2OC[C@@H](O[C@@H]3OC[C@@H](O[C@@H]4OC[C@@H](O)[C@H](O)[C@H]4O)[C@H](O)[C@H]3O)[C@H](O)[C@H]2O)[C@H](O)[C@H]1O` (stereo partly shown) [xylotetraose], the “import into S. cerevisiae strains expressing cdt-2” value in the series on CDT-2 was “able to import”.
Turning to `OC1OC[C@@H](O[C@@H]2OC[C@@H](O[C@@H]3OC[C@@H](O)[C@H](O)[C@H]3O)[C@H](O)[C@H]2O)[C@H](O)[C@H]1O` (stereo partly shown) [xylotriose], the “import into S. cerevisiae strains expressing cdt-2” value in the series on CDT-2 is listed as “able to import”.

B1: E. coli GH43-7: GH43 enzyme from bacteria Escherichia coli, homologous to GH43-7 (protein, listed as Escherichia coli)
chain: MEITNPILTGFNPDPSLCRQGEDYYIATSTFEWFPGVRIYHSRDLKNWSLVSTPLDRVSMLDMKGNPDSGGIWAPCLSYADGKFWLLYTDVKIVDSPWKNGRNFLVTAPSIEGPWSEPIPMGNGGFDPSLFHDDDGRKYYIYRPWGPRHHSNPHNTIVLQAFDPQTGTLSPERKTLFTGTPLCYTEGAHLYRHAGWYYLMVAEGGTSYEHAVVVLRSKNIDGPYELHPDVTMMTSWHLPENPLQKSGHGSLLQTHTGEWYMAYLTSRPLRLPGVPLLASGGRGYCPLGRETGIARIEWRDGWPYVEGGKHAQLTVKGPQVAEQPAAVPGNWRDDFDASSLDPELQTLRIPFDDTLGSLTARPGFLRLYGNDSLNSTFTQSTVARRWQHFAFRAETRMEFSPVHFQQSAGLTCYYNSKNWSYCFVDYEEGQGRTIKVIQLDHNVPSWPLHEQPIPVPEHAESVWLRVDVDTLVYRYSYSFDGETWHTVPVTYEAWKLSDDYIGGRGFFTGAFVGLHCEDISGDGCYADFDYFTYEPV
As to B1, in series [1], the β-xylosidase activity result is “exhibited β-xylosidase activity” and the xylosyl-xylitol hydrolase activity result is “exhibited xylosyl-xylitol hydrolase activity”.

B2: GH43-7: second putative intracellular β-xylosidase from N. crassa with xylosyl-xylitol hydrolase activity (protein)
chain: MPLVKNPILPGFNPDPSVLRVGQDYYIATSTFEWYPGVQIHHSTDLANWTLLTRPLNRKSQLDMRGDPDSCGVWAPCLSHDGDKFWLVYTDVKRKDGSFKDAHNFIVWADKIDGEWSDPVYVNSSGFDPSLFHDPDSGKKYFVNMLWDHRRRPLLFAGIAVQEWDAKTKKLVGERKNVYQGTELALAEAPHVYKRNGWYYLLIAEGGTGYEHACTLARSKDIWGPYKTHPEKHVLTSKDHPRAALQRAGHGDIVEIEDGRTYLVHLTGRPTTQLRRCVLGRETAIQECYWKDDWLYVKNGPVPSLWVDLLGERDESKYWEEKRYTFKDGLHKDFQWLRTPETERIFNVKDGKLTLIGREAIGSWFEQALVARRQEHFSYDAETVIDFSPTDERQFAGLTAYYCRYNFFYLTVTAHSDGQRELLIMSSEASWPIGNLNTPYVPYVQIPNEGKVKLALTIRGNQLQFYYAVLDSGDEELKKIGPVFDASIVSDECGGHQQHGSFTGAFVGVAASDLNGLAAEAKFDYLLYKPVKNQQDAYVRDNE
modifications: N. crassa
On to B2, for which, in series [2] (xylobiose substrate), the β-xylosidase activity entry is listed as “weak β-xylosidase activity”. Also, the “hydrolysis of xylosyl-xylitol into xylose and xylitol” value in series [2] (xylosyl-xylitol substrate) was “rapidly hydrolyzed”.

B3: XYR-1: xylose reductase from Neurospora crassa (protein)
chain: MVPAIKLNSGFDMPQVGFGLWKVDGSIASDVVYNAIKAGYRLFDGACDYGNEVECGQGVARAIKEGIVKREELFIVSKLWNTFHDGDRVEPIVRKQLADWGLEYFDLYLIHFPVALEYVDPSVRYPPGWHFDGKSEIRPSKATIQETWTAMESLVEKGLSKSIGVSNFQAQLLYDLLRYAKVRPATLQIEHHPYLVQQNLLNLAKAEGIAVTAYSSFGPASFREFNMEHAQKLQPLLEDPTIKAIGDKYNKDPAQVLLRWATQRGLAIIPKSSREATMKSNLNSLDFDLSEEDIKTISGFDRGIRFNQPTNYFSAENLWIFG
modifications: N. crassa
For the molecule B3, the “production of xylosyl-xylitol oligomers from xylodextrin substrates” value in series [3] is “able to directly produce xylosyl-xylitol oligomers; also recorded: generated xylosyl-xylitol products”.

B4: B. subtilis GH43-7: GH43 enzyme from bacteria Bacillus subtilis, homologous to GH43-7 (protein, listed as Bacillus subtilis)
chain: MKITNPVLKGFNPDPSICRAGEDYYIAVSTFEWFPGVQIHHSKDLVNWHLVAHPLQRVSQLDMKGNPNSGGVWAPCLSYSDGKFWLIYTDVKVVDGAWKDCHNYLVTCETINGDWSEPIKLNSSGFDASLFHDTDGKKYLLNMLWDHRIDRHSFGGIVIQEYSDKEQKLIGKPKVIFEGTDRKLTEAPHLYHIGNYYYLLTAEGGTRYEHAATIARSANIEGPYEVHPDNPILTSWHDPGNPLQKCGHASIVQTHTDEWYLAHLTGRPIHPDDDSIFQQRGYCPLGRETAIQKLYWKDEWPYVVGGKEGSLEVDAPSIPETIFEATYPEVDEFEDSTLNINFQTLRIPFTNELGSLTQAPNHLRLFGHESLTSTFTQAFVARRWQSLHFEAETAVEFYPENFQQAAGLVNYYNTENWTALQVTHDEELGRILELTICDNFSFSQPLNNKIVIPREVKYVYLRVNIEKDKYYYFYSFNKEDWHKIDIALESKKLSDDYIRGGGFFTGAFVGMQCQDTGGNHIPADFRYFRYKEK
B4: in series [1], the β-xylosidase activity entry was “exhibited β-xylosidase activity” and the xylosyl-xylitol hydrolase activity entry was “exhibited xylosyl-xylitol hydrolase activity”.
